{"source": "the nanobody polyreactivity screen of Harvey et al. (2022)", "data": [{"experiment": "yeast display, Sf9 membrane polyspecificity reagent, FACS + sequencing; frameworks hold sequencing errors", "summary_of_the_method": "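Genes from sorted yeast were amplified by colony PCR, read by MiSeq 2 × 250 sequencing and filtered on CDR length. These cells carried a synthetic nanobody library in Saccharomyces cerevisiae BJ5465 and were sorted by FACS into low and high (top ~1%) gates on anti-HA and streptavidin fluorescence. Polyreactivity is labelled according to the gate of origin.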", "values": [{"sequence": "QVQLVESGGGLVQAGGSLRLSCAASGSTFQLYVMGWYRQAPGKERELVAAIDDGGGSTYYADSVKGRFTISRDNAKNTVYLQMNSLKPEDTAVYYCARRYGYFGYEYDYWGQGTQVTVSS", "polyreactivity (PSR sort gate)": "high polyreactivity"}, {"sequence": "QVQLVESGGGLVQAGGSLRLSCAASGSTFQNYAMGWYRQAPGKERELVATINWSGGNTYYADSVKGRFTISRDNAKNTVYLQMNSLKPEDTAVYYCAADSPRYYYWVGPYYGYDYWGQGTQVTVSS", "polyreactivity (PSR sort gate)": "high polyreactivity"}, {"sequence": "QVQLVESGGGLVQAGGSLRLSCAASGSTFQRNAMGWYRQAPGKERELVAVITRRGASTYYADSVKGRFTISRDYEKNTVYLQMKSLKAEDTAVYYCNKVPYGRDHHLLFDYWGQGTQVTVSS", "polyreactivity (PSR sort gate)": "high polyreactivity"}, {"sequence": "QVQLVESGGGLVQAGGSLRLSCAASGSTFQSNAMGWYRQAPGKERELVASITDSGGRTYYADSVKGRFTSSRDNAKNTVYLQMNSLKPEDTAVYYCAAVSLWWSDYYFVEYDYWGQGTQVTVSS", "polyreactivity (PSR sort gate)": "high polyreactivity"}, {"sequence": "QVQLVESGGGLVQAGGSLRLSCAASGSTFQSNGMGWYRQAPGKERELVAAITSTDASTSYADSVKGRFTISRDNAKNTVYLQMNSLKPEDTAVYYCAADFPVASGAELDYWGQGTQVTVSS", "polyreactivity (PSR sort gate)": "low polyreactivity"}, {"sequence": "QVQLVESGGGLVQAGGSLRLSCAASGSTFQSYAMGWYRQAPGKERELVAAITTTGTRTYYADSVKGRFTISRDNAKNTVYLQMNSLKPEDTAVYYCNAQRLQAHRTSRRYGYWGQGTQVTVSS", "polyreactivity (PSR sort gate)": "high polyreactivity"}, {"sequence": "QVQLVESGGGLVQAGGSLRLSCAASGSTFQSYTMGWYRPAPGKERELVAAISSSGGRTYYADSVKGRFTISRDNAKHTVYLQMNSLKPEDTAVYYCAAVTQSWRGATWYDYWGQGTQVTVSS", "polyreactivity (PSR sort gate)": "high polyreactivity"}, {"sequence": "QVQLVESGGGLVQAGGSLRLSCAASGSTFQTNAMGWYRQAPGKERELVAAINSGGGTNYADSVKGRFTISRDNAKNTVYLQMNSLKPEDTAVYYCATDVLPRKYVSDYPSGAYDYWGQGTQVTVSS", "polyreactivity (PSR sort gate)": "low polyreactivity"}, {"sequence": "QVQLVESGGGLVQAGGSLRLSCAASGSTFQTNARGWYRQAPGKERELVAAITWSGTSTYADSVKGRFTISRDNAKNPGYFQMNSLKPDDTAVYYCAAPILSFPSPYVQYDYWGLGTQVTVSS", "polyreactivity (PSR sort gate)": "low polyreactivity"}, {"sequence": "QVQLVESGGGLVQAGGSLRLSCAASGSTFQWNAMGWYRQAPGKERELVAAISKSGGRTYYADSVKGRFTISRDFAKNTVYLQRNSLKPDDTAVYYCNALGSLDGRYGYWGQGTQVTVSS", "polyreactivity (PSR sort gate)": "high polyreactivity"}, {"sequence": "QVQLVESGGGLVQAGGSLRLSCAASGSTFQWYAMGWYRQAPGKERELVAAINKSGGTTYYADSVKGRFTISRDNAKNTVYLQMNSLKPEDTAVYYCAADTQQRGVYPRWWNPEFDYWGLGTQVTVSS", "polyreactivity (PSR sort gate)": "low polyreactivity"}, {"sequence": "QVQLVESGGGLVQAGGSLRLSCAASGSTFQYNAMAWYRQAPGKEREFVAAITSSGGSTYYADSVKGRFTISRDNAKNTVYLQMNSLKPEDTAVYYCNKRRTRRYDYWGQGTQVTVSS", "polyreactivity (PSR sort gate)": "high polyreactivity"}, {"sequence": "QVQLVESGGGLVQAGGSLRLSCAASGSTFQYNAMGGYRQAPGKERELVASISWSGGSTYYADSVKGRFTISRDNAKNTVYLQMNSLKPEVTAVYYCAADWSDQRDYWGQGTQVTVSS", "polyreactivity (PSR sort gate)": "low polyreactivity"}, {"sequence": "QVQLVESGGGLVQAGGSLRLSCAASGSTFQYNAMGWYRQAPGKEREFVAAISRTGTSTYYADSVKGRFTISRDNAKNTVYLLMNSLKPEDTAVYYCAAKSLRSGMGYWGQGTQVTVTS", "polyreactivity (PSR sort gate)": "high polyreactivity"}, {"sequence": "QVQLVESGGGLVQAGGSLRLSCAASGSTFQYNAMGWYRQAPGKEREFVAAISRTGTSTYYADSVKGRFTISRDNAKNTVYLQMNSLKPEDNAVYYCAAKSLRSGMGYWGQGTQVTVSS", "polyreactivity (PSR sort gate)": "high polyreactivity"}, {"sequence": "QVQLVESGGGLVQAGGSLRLSCAASGSTFQYNAMGWYRQAPGKEREFVAAITNGGGSTYYADSVKGRFTISRDNAKNTVYLQMNSLKPEDTAVYYCNARFRYARYSQRYDYWGQGTQVTVSS", "polyreactivity (PSR sort gate)": "high polyreactivity"}, {"sequence": "QVQLVESGGGLVQAGGSLRLSCAASGSTFQYNAMGWYRQAPGKERELVAAISTGTSTYYADSVKGRFTISRDNAKNTVYLQMNSLKPEDTAVYYCAAEYWGDYTEYNYWGQGTQVTVSS", "polyreactivity (PSR sort gate)": "high polyreactivity"}, {"sequence": "QVQLVESGGGLVQAGGSLRLSCAASGSTFQYNVMGWYRPAPGKERELVATISYSSGRTYYADSVKGRFTISRDNAKNTVYLQMNSLKPEDTAVYYCAAAVRLYFWTSAYKYGYWGQGTQVTVSS", "polyreactivity (PSR sort gate)": "high polyreactivity"}, {"sequence": "QVQLVESGGGLVQAGGSLRLSCAASGSTFQYYAMGWYRQAPGKERELVAAISSGGRTNYADSVKGRFTISRDNAKNTVYLQMNSLKPEDTAVYYCAARWCYTKGEFDYWGQGTQVTVSS", "polyreactivity (PSR sort gate)": "high polyreactivity"}, {"sequence": "QVQLVESGGGLVQAGGSLRLSCAASGSTFRANAMGWYRQAPGKERELVAAITSGGSTNYADSVKGRFTISRDNAKNTVYLQMNCLKPEDTAVYYCADESYQEHSFYVYYGYDYWGQGTQVTVSS", "polyreactivity (PSR sort gate)": "low polyreactivity"}, {"sequence": "QVQLVESGGGLVQAGGSLRLSCAASGSTFRANAMGWYRQAPGKERELVAAITSGGSTNYADSVKGRFTISRDNATNTVYLQMNSLKPEDTAVYYCADESYQEHSFYVYYGYDYWGQGTQVTVSS", "polyreactivity (PSR sort gate)": "low polyreactivity"}, {"sequence": "QVQLVESGGGLVQAGGSLRLSCAASGSTFRANVMGWYRQAPGKEWELVAAITSGGGSTYYADSVKGRFTISRDNAKNTVYLQMNSLKPEDTAVYYCATKRARYSYYYWGQGTQVTVSS", "polyreactivity (PSR sort gate)": "high polyreactivity"}, {"sequence": "QVQLVESGGGLVQAGGSLRLSCAASGSTFRDNAMGWYRQAPGKERELVAAITVIDGTTYYADSVKGRFTISRDNAKNTVYLQMKSLKPEDTAVYYCAADTIWYEYYYWGQGTQVTVSS", "polyreactivity (PSR sort gate)": "low polyreactivity"}, {"sequence": "QVQLVESGGGLVQAGGSLRLSCAASGSTFRDNAMGWYRQAPGKEWELVAAITVIDGTTYYADSVKGRFTLSRDNAKNTVYLQMNSLKPEDTAVYYCAADTIWYEYYYWGQGTQVTVSS", "polyreactivity (PSR sort gate)": "low polyreactivity"}, {"sequence": "QVQLVESGGGLVQAGGSLRLSCAASGSTFRDNTMGWYRQAPGKERELVAAITKSGGSTYYADSVKGRFTISRDTAKNTVYLQMNSLKPEDTAVYYCAAGARPRDKPVYFLYRYDYWGQGTQGTVSS", "polyreactivity (PSR sort gate)": "low polyreactivity"}, {"sequence": "QVQLVESGGGLVQAGGSLRLSCAASGSTFRDYAMGWYRQAPGKERELVAAITSGGTTDYADSVKGRFTISRYNAKNTVYLQMISLKPEDTAVYYCNKDGVVAGYQYDYWGQGTQVTVSS", "polyreactivity (PSR sort gate)": "low polyreactivity"}, {"sequence": "QVQLVESGGGLVQAGGSLRLSCAASGSTFRFYALGWSRQAPGKERELVAAINGSGGSTYYADSVKGRFTISRDNAKNTVYLQMNSLKPEDTAVYYCAATYYILYTSWDEYWGQGTQVTVSS", "polyreactivity (PSR sort gate)": "low polyreactivity"}, {"sequence": "QVQLVESGGGLVQAGGSLRLSCAASGSTFRFYAMGWYRQAPGKEREFVAAISTSGGSTYYADSVKGRFTISRDNAKNTVYLQMISLKPEETAVYYCATRRRIRSSFYYDNDYWGLGTQVTVSS", "polyreactivity (PSR sort gate)": "high polyreactivity"}, {"sequence": "QVQLVESGGGLVQAGGSLRLSCAASGSTFRFYAMGWYRQAPGKERELVAAISSGGSTYYADSVKGRFTISRDNAKNTVYLQMNSLKPEDTAVYYCNARLYYSTFRYYYWGQGTQVTVSS", "polyreactivity (PSR sort gate)": "high polyreactivity"}, {"sequence": "QVQLVESGGGLVQAGGSLRLSCAASGSTFRFYAMGWYRQAPGKERELVAVISSAGSTNYADSVKGRFTISRDNAKNTVYLQMNSLKTEDTAVYYCAAYRRYSIYNYWGQGTQVTVSS", "polyreactivity (PSR sort gate)": "high polyreactivity"}, {"sequence": "QVQLVESGGGLVQAGGSLRLSCAASGSTFRFYTMGWYRQAPGKERELVAAISGSGGSTYYADSVKGRFTISRDNAKNTVYLQMNSLKPEDTADYYCAADKSRNASHRGYWGQGTQVTVSS", "polyreactivity (PSR sort gate)": "low polyreactivity"}, {"sequence": "QVQLVESGGGLVQAGGSLRLSCAASGSTFRFYTMGWYRQAPGKERELVAAISGSGGSTYYADSVKGRFTISRDNAKNTVYLQMNSLKPEDTAVYYCAADKSRYASHRGYWGQGTQVTVSS", "polyreactivity (PSR sort gate)": "low polyreactivity"}, {"sequence": "QVQLVESGGGLVQAGGSLRLSCAASGSTFRGYAMGWYRQAPGKEREFVAAISRRGGTTYYADSVKGRFTISRDNAKNTVDLQMNSRNPEDTAVYYCNAVLYARQRDRWARYDYWGQGTQVTVSS", "polyreactivity (PSR sort gate)": "high polyreactivity"}, {"sequence": "QVQLVESGGGLVQAGGSLRLSCAASGSTFRGYAMGWYRQAPGKERELVAAIISDGTTNYADSVKGRFTISRDNAQTTVYLQMNSLKPEDTAVYYCNAEVQGGRPQFDYWGQGTQVTVSS", "polyreactivity (PSR sort gate)": "low polyreactivity"}, {"sequence": "QVQLVESGGGLVQAGGSLRLSCAASGSTFRGYAMGWYRQAPGKERELVAAITFRGGSTYYADSVKGRFTISRDNAKNTVFLQMNSLKPEDTEVYYCYVRIYGYDYWGQGTQVSVSS", "polyreactivity (PSR sort gate)": "high polyreactivity"}, {"sequence": "QVQLVESGGGLVQAGGSLRLSCAASGSTFRGYAMGWYRQAPGKERELVATITSGGSTKYADSVKGRFTISRDNAKNTVYLQMNSLKPEDTAVYYCNAVPRSWSPYSHWFDYWGQGTQVTVSS", "polyreactivity (PSR sort gate)": "low polyreactivity"}, {"sequence": "QVQLVESGGGLVQAGGSLRLSCAASGSTFRGYAMGWYRQAPGKERELVATITSGGSTNYADSVKGRFTISRDNAKNTVYLQMNSLKPEDTAVYYCNARWVPRYWKYFPANYGYWGLGTQVTVSS", "polyreactivity (PSR sort gate)": "high polyreactivity"}, {"sequence": "QVQLVESGGGLVQAGGSLRLSCAASGSTFRGYAMGWYRQEPGKERELVAAITSGGSTNYADSVKGRFTISRDNAKNTVYLQMISLKPEDTAVYYCNADYTYLYDPNDYWGQGTQVTVSS", "polyreactivity (PSR sort gate)": "low polyreactivity"}, {"sequence": "QVQLVESGGGLVQAGGSLRLSCAASGSTFRGYTMGRNRQAPGKERELVAAISFRGTSTYYADSVKGRFTISRDNAKITVYLQMNSLIPEDTAVDYCAAVYTWGPGYGHDYWGQGTQVTVSS", "polyreactivity (PSR sort gate)": "low polyreactivity"}, {"sequence": "QVQLVESGGGLVQAGGSLRLSCAASGSTFRHNAMGWYRQAPGKERELVAAITRSGGRTFYADSVKGRFTISRDNAKNTVYLQMNSLKPEDTAVYYCWGLGTQVTVSS", "polyreactivity (PSR sort gate)": "low polyreactivity"}, {"sequence": "QVQLVESGGGLVQAGGSLRLSCAASGSTFRHYAMGWYRQAPGKERELVAAISIRGGSTNYADSVKGRFTISRDNAKNTVYLQMNSLKPEDTAVYYCNACRLRYIFKSYDYWGQGTQVTVSS", "polyreactivity (PSR sort gate)": "high polyreactivity"}]}]}
